Test [1] addresses T1, recombinant human GPC3(Q25-H559)-6xHis (human, UniProt P51654 25-559).
T1 construct: range 25-559; also called rhGPC3; RhGPC3
As to the kind of experiment: BLI (Octet Red96), scFv mFc captured on an AMC biosensor, rhGPC3 lot 2 at a single 500 nM concentration, 1:1 model. In general terms: In BLI a coated tip is dipped into the sample, and binding shifts an interference pattern.

Test [2] has as its target T2, human GPC5 overexpressed on K562 cells (human) (UniProt P78333).
T2 sequence (looked up): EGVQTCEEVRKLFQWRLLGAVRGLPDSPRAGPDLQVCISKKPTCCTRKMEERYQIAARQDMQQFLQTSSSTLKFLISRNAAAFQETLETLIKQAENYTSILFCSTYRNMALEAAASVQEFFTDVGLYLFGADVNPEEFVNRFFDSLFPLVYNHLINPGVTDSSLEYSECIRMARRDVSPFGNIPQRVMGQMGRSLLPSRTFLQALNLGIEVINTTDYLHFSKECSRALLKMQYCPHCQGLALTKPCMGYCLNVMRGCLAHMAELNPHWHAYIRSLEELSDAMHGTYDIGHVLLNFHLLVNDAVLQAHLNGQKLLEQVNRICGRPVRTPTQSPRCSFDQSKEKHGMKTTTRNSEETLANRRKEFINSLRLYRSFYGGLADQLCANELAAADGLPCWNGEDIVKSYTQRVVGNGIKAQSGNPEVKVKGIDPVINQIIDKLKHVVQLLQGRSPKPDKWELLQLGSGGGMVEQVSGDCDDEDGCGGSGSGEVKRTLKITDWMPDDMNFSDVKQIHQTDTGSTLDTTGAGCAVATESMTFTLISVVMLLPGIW
As to the kind of experiment: cell-based or functional assay.

Test [3] deals with human GPC3 (glypican 3), full length, on cells (human) (UniProt P51654). As to the kind of experiment: cell-based or functional assay.
Test [4] deals with mouse GPC3 overexpressed on K562 cells (mouse) (UniProt Q8CFZ4). As to the kind of experiment: cell-based or functional assay.
In test [5] the target is T1, recombinant human GPC3(Q25-H559)-6xHis. Kind of test: BLI (Octet Red96), scFv-Fc captured on AMC biosensors, rhGPC3 lot 2 as analyte, 1:1 model, global fit. On the procedure: (§1) A kinetics constant for mAb1-1 scFv mFc binding to its target, GPC3, was determined using a Sartorius Octet Red96 with AMC biosensors. mAb1-1 scFv-Fc was diluted to 2 ug/mL and captured onto 7 AMC biosensor tips under agitation. One biosensor was left blank as a reference. Two lots of recombinant human GPC3(Q25-H559)-6×His (rhGPC3) at 464.3, 154.8, 51.59, 17.2, 5.73, 1.911 and 0 nM were used as analytes. The association phase was measured for 90 sec and the dissociation was measured for 120 sec. All measurements were corrected for baseline drift by subtracting a control sensor exposed to running buffer only. The data were analyzed using a 1:1 interaction model with global fitting for each analyte lot separately, using Octet analysis software.

Test [6] has the same target. As to the kind of experiment: BLI (Octet Red96), scFv-Fc captured on AMC biosensors, rhGPC3 lot 1 as analyte, 1:1 model, global fit. On the procedure: as §1

mouse GPC3 overexpressed on K562 cells (mouse), sequence (Q8CFZ4 25-579): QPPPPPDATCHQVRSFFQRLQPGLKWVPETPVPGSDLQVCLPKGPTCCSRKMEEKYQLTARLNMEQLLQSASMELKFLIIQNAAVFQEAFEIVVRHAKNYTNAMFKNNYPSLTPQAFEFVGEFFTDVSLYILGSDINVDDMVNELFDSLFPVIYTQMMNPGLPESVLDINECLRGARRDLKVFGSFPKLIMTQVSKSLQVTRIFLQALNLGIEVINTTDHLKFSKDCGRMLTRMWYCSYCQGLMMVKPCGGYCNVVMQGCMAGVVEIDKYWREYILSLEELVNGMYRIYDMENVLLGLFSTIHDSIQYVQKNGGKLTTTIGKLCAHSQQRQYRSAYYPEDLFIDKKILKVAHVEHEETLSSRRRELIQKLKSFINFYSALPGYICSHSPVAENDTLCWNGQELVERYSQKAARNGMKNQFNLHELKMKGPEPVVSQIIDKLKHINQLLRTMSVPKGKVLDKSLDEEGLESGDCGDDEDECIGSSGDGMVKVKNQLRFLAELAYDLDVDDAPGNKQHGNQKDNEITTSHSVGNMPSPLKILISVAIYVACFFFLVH
human GPC3 (glypican 3), full length, on cells (human), sequence (P51654 25-554 limits assumed): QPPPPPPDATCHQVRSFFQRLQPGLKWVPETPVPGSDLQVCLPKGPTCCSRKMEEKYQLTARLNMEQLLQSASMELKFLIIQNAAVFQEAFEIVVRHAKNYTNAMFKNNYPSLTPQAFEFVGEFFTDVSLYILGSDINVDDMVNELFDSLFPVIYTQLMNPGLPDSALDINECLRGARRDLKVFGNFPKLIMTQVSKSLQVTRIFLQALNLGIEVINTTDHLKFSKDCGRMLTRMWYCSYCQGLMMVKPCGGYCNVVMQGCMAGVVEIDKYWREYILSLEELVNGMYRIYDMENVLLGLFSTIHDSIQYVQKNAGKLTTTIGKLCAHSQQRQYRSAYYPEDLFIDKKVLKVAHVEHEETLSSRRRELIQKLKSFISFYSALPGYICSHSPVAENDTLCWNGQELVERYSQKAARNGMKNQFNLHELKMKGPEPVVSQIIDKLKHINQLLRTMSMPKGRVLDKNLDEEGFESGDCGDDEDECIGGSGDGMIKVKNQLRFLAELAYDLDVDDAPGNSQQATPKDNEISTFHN
T1 sequence (P51654 other isoform, or with tags, fused parts or gaps limits assumed, form in doubt): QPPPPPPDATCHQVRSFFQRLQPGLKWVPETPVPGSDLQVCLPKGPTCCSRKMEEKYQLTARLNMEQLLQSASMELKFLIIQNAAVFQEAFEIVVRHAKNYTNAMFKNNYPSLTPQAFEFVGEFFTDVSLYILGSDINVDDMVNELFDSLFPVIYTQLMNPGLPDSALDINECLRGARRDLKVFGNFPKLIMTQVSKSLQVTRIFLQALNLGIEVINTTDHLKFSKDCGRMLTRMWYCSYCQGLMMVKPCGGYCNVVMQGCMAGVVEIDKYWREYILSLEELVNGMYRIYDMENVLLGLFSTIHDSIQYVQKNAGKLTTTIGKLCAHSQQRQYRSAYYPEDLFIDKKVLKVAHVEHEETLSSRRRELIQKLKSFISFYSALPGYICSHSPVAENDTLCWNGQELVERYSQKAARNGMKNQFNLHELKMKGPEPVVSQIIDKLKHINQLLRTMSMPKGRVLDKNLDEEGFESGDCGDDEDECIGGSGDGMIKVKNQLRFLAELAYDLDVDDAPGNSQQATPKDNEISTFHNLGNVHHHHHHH

What is called Kd is the equilibrium constant for the complex coming apart. In general, koff refers to the rate constant with which the complex falls apart. Broadly, the kon is a measure of how fast the partners come together. With YP7 scFv mFc (Fc fusion), in test [1], the equilibrium dissociation constant (Kd) was 8.73 nM, the koff came out at 0.000675 s⁻¹ and the on-rate (kon) turned out to be 77300 M⁻¹ s⁻¹.

B1: hmAb1-2 CAR (protein, part only; not given: hinge, transmembrane and signaling domains, part only)
chain, part: QVQLVQSGAEVKKPGASVKVSCKASGYTFTDYYIHWVRQAPGQGLEWMGEIYPGSGNTYYAQKFQGRVTMTRDTSTSTVYMELSSLRSEDTAVYYCARGNDYDAWFVYWGQGTLVTVSSGSTSGSGKPGSGEGSTKGDIVMTQSPDSLAVSLGERATINCKSSQSLLNSGTRKNYLAWYQQKPGQPPKLLIYWASIRESGVPDRFSGSGSGTDFTLTISSLQAEDVAVYYCKQSYSLYTFGQGTKLEIK
For the molecule B1, the % dead target cells, flow cytometry, 48h, K562-human GPC5 in test [2] worked out at 18.2%. In test [3], this molecule came in with a % cytolysis of Hep3B at 164h, xCELLigence, 500 CAR T cells, Donor 1 of 95.7%; a % cytolysis of Hep3B at 164h, xCELLigence, 500 CAR T cells, Donor 2 of 91.3%; a % dead target cells, flow cytometry, 48h, Hep3B of 89.4%. For the same molecule, the % dead target cells, flow cytometry, 48h, K562-mouse GPC3 in test [4] was determined as 48.3%.

B2: mAb1-1 scFv-Fc (single chain variable fragment fused to a murine IgG2A fragment crystallizable domain) (Fc fusion)
chain: QVQLVQSGAEVKKPGASVKVSCKTSGYTFTDYYIHWVRQAPGQGLEWMGEIYPGSGNTYYAQKFQGRVTMTADTSTSTAYMELSSLRSEDTAVYYCARGNDYDAWFVYWGQGTLVTVSSGSTSGSGKPGSGEGSTKGDIVMTQSPDSLAVSLGERVTMNCKSSQSLLNSGTRKNYLAWYQQKPGQPPKLLIYWASIRESGVPDRFSGSGSGTDFTLTISSVQAEDVAVYYCKQSYSLYTFGQGTKLEIK
notes: also called mAb1-1 scFv mFc; not shown: murine IgG2A fragment crystallizable (Fc) domain
Regarding B2, in test [5], the Kd is 35.2 nM, the koff was 0.00785 s⁻¹ and the kon was found to be 223000 M⁻¹ s⁻¹. In test [6], the Kd was 32.7 nM, the dissociation rate constant (koff) was 0.00712 s⁻¹ and the on-rate (kon) worked out at 218000 M⁻¹ s⁻¹.

B3: hmAb1-3 CAR (protein, part only; not given: hinge, transmembrane and signaling domains, part only)
chain, part: QVQLVQSGAEVKKPGASVKVSCKTSGYTFTDYYIHWVRQAPGQGLEWMGEIYPGSGNTYYAQKFQGRVTMTADTSTSTAYMELSSLRSEDTAVYYCARGNDYDAWFVYWGQGTLVTVSSGSTSGSGKPGSGEGSTKGDIVMTQSPDSLAVSLGERATINCKSSQSLLNSGTRKNYLAWYQQKPGQPPKLLIYWASIRESGVPDRFSGSGSGTDFTLTISSLQAEDVAVYYCKQSYSLYTFGQGTKLEIK
Molecule B3 showed a % dead target cells, flow cytometry, 48h, K562-human GPC5 in test [2] of 16.3%. Further, in test [3], the % cytolysis of Hep3B at 164h, xCELLigence, 500 CAR T cells, Donor 1 amounted to 97.1%; the % cytolysis of Hep3B at 164h, xCELLigence, 500 CAR T cells, Donor 2 amounted to 89.4%; the % dead target cells, flow cytometry, 48h, Hep3B worked out at 89.9%. The same molecule had a % dead target cells, flow cytometry, 48h, K562-mouse GPC3 in test [4] of 50.5%.

B4: hmAb1-5 CAR (protein, part only; not given: hinge, transmembrane and signaling domains, part only)
chain, part: QVQLVQSGAEVKKPGASVKVSCKTSGYTFTDYYIHWVRQAPGQGLEWIGEIYPGSGNTYYAQKFQGRATLTADTSTSTAYMEFSSLRSEDTAVYYCARGNDYDAWFVYWGQGTLVTVSSGSTSGSGKPGSGEGSTKGDIVMTQSPDSLAVSLGERVTMNCKSSQSLLNSGTRKNYLAWYQQKPGQPPKLLIYWASIRESGVPDRFSGSGSGTDFTLTISSVQAEDVAVYYCKQSYSLYTFGQGTKLEIK
Regarding B4, in test [2], the % dead target cells, flow cytometry, 48h, K562-human GPC5 came to 18.5%. In test [3], this molecule gave a % cytolysis of Hep3B at 164h, xCELLigence, 500 CAR T cells, Donor 1 of 99.3%; a % cytolysis of Hep3B at 164h, xCELLigence, 500 CAR T cells, Donor 2 of 95%; a % dead target cells, flow cytometry, 48h, Hep3B of 90.5%. In test [4], the % dead target cells, flow cytometry, 48h, K562-mouse GPC3 was 52.9%.

B5: hmAb1-1 CAR (protein, part only; not given: hinge, transmembrane and signaling domains, part only)
chain, part: QVQLVQSGAEVKKPGASVKVSCKTSGYTFTDYYIHWVRQAPGQGLEWMGEIYPGSGNTYYAQKFQGRVTMTADTSTSTAYMELSSLRSEDTAVYYCARGNDYDAWFVYWGQGTLVTVSSGSTSGSGKPGSGEGSTKGDIVMTQSPDSLAVSLGERVTMNCKSSQSLLNSGTRKNYLAWYQQKPGQPPKLLIYWASIRESGVPDRFSGSGSGTDFTLTISSVQAEDVAVYYCKQSYSLYTFGQGTKLEIK
Take B5: the % dead target cells, flow cytometry, 48h, K562-human GPC5 in test [2] came to 17.7%. Also, in test [3], the % cytolysis of Hep3B at 164h, xCELLigence, 500 CAR T cells, Donor 1 amounted to 96.4%; the % cytolysis of Hep3B at 164h, xCELLigence, 500 CAR T cells, Donor 2 was 93.4%; the % dead target cells, flow cytometry, 48h, Hep3B amounted to 91.1%. In addition, in test [4], the % dead target cells, flow cytometry, 48h, K562-mouse GPC3 turned out to be 53.9%.

B6: hmAb1-4 CAR (protein, part only; not given: hinge, transmembrane and signaling domains, part only)
chain, part: QVQLVQSGAEVKKPGASVKVSCKTSGYTFTDYYIHWVRQAPGQGLEWIGEIYPGSGNTYYAQKFQGRATLTADTSTSTAYMEFSSLRSEDTAVYYCARGNDYDAWFVYWGQGTLVTVSSGSTSGSGKPGSGEGSTKGDIVMTQSPDSLAVSLGERATINCKSSQSLLNSGTRKNYLAWYQQKPGQPPKLLIYWASIRESGVPDRFSGSGSGTDFTLTISSLQAEDVAVYYCKQSYSLYTFGQGTKLEIK
On to B6, for which, in test [2], the % dead target cells, flow cytometry, 48h, K562-human GPC5 was 16.4%. In test [3], the % cytolysis of Hep3B at 164h, xCELLigence, 500 CAR T cells, Donor 1 was 94.9%; the % cytolysis of Hep3B at 164h, xCELLigence, 500 CAR T cells, Donor 2 came to 89.6%; the % dead target cells, flow cytometry, 48h, Hep3B came to 89.8%. For the same molecule, the % dead target cells, flow cytometry, 48h, K562-mouse GPC3 in test [4] was determined as 52.7%.

B7: mAb1-1_DNR2 CAR (mAb1-1 CAR co-expressed with TGFbDNR2) (protein, part only; not given: CAR signaling domains and DN TGFbR2, part only)
chain, part: QVQLVQSGAEVKKPGASVKVSCKTSGYTFTDYYIHWVRQAPGQGLEWMGEIYPGSGNTYYAQKFQGRVTMTADTSTSTAYMELSSLRSEDTAVYYCARGNDYDAWFVYWGQGTLVTVSSGSTSGSGKPGSGEGSTKGDIVMTQSPDSLAVSLGERVTMNCKSSQSLLNSGTRKNYLAWYQQKPGQPPKLLIYWASIRESGVPDRFSGSGSGTDFTLTISSVQAEDVAVYYCKQSYSLYTFGQGTKLEIK
In test [3], B7 gave a % cytolysis, xCELLigence, Hep3B, High E:T (1,000 CAR T cells) of 100%; a % cytolysis, xCELLigence, Hep3B, Low E:T (500 CAR T cells) of 99%; a % cytolysis, xCELLigence, Huh7, High E:T (10,000 CAR T cells) of 100%; a % cytolysis, xCELLigence, Huh7, Low E:T (500 CAR T cells) of 44%. Further, in test [3], the IFNg secretion after 24 h coculture with Hep3B, Luminex, replicate 1 turned out to be 37700 pg/mL; the IFNg secretion after 24 h coculture with Hep3B, Luminex, replicate 2 is 39400 pg/mL; the IFNg secretion after 24 h coculture with Hep3B, Luminex, replicate 3 came out at 44500 pg/mL.

Values taken from patent US20260242507A1 (KITE PHARMA, published 2026).
